Patent US20150079023A1

Molecular target: CD16 (Fc receptor on NK cells) (human) (UniProt P08637)
Assay: cell-based or functional assay

UniProt P08637, sequence (P08637 17-254): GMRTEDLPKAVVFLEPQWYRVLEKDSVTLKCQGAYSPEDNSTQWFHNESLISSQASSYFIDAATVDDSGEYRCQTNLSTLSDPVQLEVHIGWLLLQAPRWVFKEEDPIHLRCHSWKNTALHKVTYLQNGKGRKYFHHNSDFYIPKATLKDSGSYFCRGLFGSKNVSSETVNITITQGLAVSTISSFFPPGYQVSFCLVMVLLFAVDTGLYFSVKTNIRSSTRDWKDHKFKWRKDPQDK

% of CD69+ cells among total NK cells, 7-day CLL PBMC culture, RTX 10 ug/mL (untreated median 35.75%): 65.2%
median % of proliferating NK cells (CFSE dilution), 7-day CLL culture, antibody alone: 14.8%
median % of proliferating NK cells (CFSE dilution), 7-day CLL culture, antibody plus IL-15 10 ng/mL (IL-15 alone 42.25%): 53.8%
Substance: rituximab (antibody)
median % of viable CD19+/CD5+ B leukemic cells compared to untreated, 7 days, antibody alone: 79.5%
median % of viable CD19+/CD5+ B leukemic cells compared to untreated, 7 days, antibody plus IL-15 10 ng/mL: 50.4%
